Target: human V1a receptor (human) (UniProt P37288)
Assay: cell-based or functional assay

Sequence of human V1a receptor (human) (P37288 whole entry): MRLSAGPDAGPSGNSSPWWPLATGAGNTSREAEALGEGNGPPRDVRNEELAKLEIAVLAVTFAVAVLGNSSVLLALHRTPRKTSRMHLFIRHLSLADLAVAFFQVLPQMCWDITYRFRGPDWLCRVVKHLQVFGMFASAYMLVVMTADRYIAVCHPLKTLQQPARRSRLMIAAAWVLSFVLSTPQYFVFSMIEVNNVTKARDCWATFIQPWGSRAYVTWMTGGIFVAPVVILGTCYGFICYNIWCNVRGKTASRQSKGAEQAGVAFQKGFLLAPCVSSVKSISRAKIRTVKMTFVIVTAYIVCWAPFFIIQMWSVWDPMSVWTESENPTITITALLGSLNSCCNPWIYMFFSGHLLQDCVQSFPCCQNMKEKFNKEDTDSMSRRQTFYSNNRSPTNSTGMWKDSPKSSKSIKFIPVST

Estimated V1a EC50 (calcium flux): 1.65 nM
V1a Highest agonist effect (% of AVP): 92.1 % of AVP
Substance: Lysine vasopressin (LVP) (from UniProt P01183 20-28) (peptide)

Reference: patent publication US20230248800A1
